Results: article PMC9287719
Where two headings read alike, the source gives them in different places. Values belong to the substance of their own block, whether it stands above or below them.

Columns and labels:
[1] = target: Recombinant FcγRIIa (H131) with C-terminus Biotin (human) (UniProt P12318)
[2] = target: Recombinant FcγRIIa (R131) with C-terminus Biotin (human) (UniProt P12318)
[3] = target: Recombinant FcγRIIIa (V158) with C-terminus Biotin (human)
Target sequence in this assay (P08637 17-208 F176V): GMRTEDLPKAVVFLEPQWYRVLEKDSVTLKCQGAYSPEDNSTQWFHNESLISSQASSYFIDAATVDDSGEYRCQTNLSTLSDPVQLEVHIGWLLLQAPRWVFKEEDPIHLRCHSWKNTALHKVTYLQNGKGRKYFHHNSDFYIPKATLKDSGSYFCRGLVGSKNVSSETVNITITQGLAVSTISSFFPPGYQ

[4] = target: Recombinant FcγRIIb with C-terminus Biotin (human) (UniProt P31994)
[5] = target: Recombinant FcγRIIIa (F158) with C-terminus Biotin (human) (UniProt P08637)
[6] = target: Recombinant FcγRIIa (R131) with C-terminus Biotin (human) (UniProt P12318); remark: listed apart in the source
[7] = target: Recombinant FcγRIIa (H131) with C-terminus Biotin (human) (UniProt P12318); remark: listed apart in the source
[8] = target: Recombinant FcγRIIIa (V158) with C-terminus Biotin (human); remark: listed apart in the source
Target sequence in this assay (P08637 17-208 F176V): as above

[9] = target: Recombinant FcγRI with C-terminus Biotin (human) (UniProt P12314)
[10] = target: Recombinant FcγRIIb with C-terminus Biotin (human) (UniProt P31994); test: other; qualitative only
[11] = target: Recombinant FcγRI with C-terminus Biotin (human) (UniProt P12314); remark: listed apart in the source
[12] = target: Recombinant FcγRIIa (R131) with C-terminus Biotin (human) (UniProt P12318); remark: listed apart in the source
[13] = target: Recombinant FcγRIIa (H131) with C-terminus Biotin (human) (UniProt P12318); remark: listed apart in the source
[14] = target: Recombinant FcγRIIIa (V158) with C-terminus Biotin (human); test: split reporter (BiFC, NanoBiT); homogeneous competition assay in solution for FcγRIIa and FcγRIIIa variants: sample competes with IgG-LgBiT tracer for FcγR-Biotin mixed 1:1 with Streptavidin-SmBiT; 30–60 min; PBS with 10% superblock; IC50 equivalent to apparent affinity (KD)
[15] = target: Recombinant FcγRIIa (H131) with C-terminus Biotin (human) (UniProt P12318); test: as above
[16] = target: Recombinant FcγRIIa (R131) with C-terminus Biotin (human); test: as above
[17] = target: Recombinant FcγRIIIa (F158) with C-terminus Biotin (human) (UniProt P08637); test: as above

Chain of Recombinant FcγRIIa (R131) with C-terminus Biotin (human) (UniProt P12318) (P12318 34-217 H167R): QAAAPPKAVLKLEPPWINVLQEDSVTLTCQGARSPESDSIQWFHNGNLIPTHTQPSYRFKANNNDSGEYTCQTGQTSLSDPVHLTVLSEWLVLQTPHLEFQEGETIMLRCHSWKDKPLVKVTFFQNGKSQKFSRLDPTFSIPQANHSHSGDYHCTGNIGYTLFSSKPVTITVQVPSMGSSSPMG
Chain of Human IgG2 (P01859 whole entry, looked up): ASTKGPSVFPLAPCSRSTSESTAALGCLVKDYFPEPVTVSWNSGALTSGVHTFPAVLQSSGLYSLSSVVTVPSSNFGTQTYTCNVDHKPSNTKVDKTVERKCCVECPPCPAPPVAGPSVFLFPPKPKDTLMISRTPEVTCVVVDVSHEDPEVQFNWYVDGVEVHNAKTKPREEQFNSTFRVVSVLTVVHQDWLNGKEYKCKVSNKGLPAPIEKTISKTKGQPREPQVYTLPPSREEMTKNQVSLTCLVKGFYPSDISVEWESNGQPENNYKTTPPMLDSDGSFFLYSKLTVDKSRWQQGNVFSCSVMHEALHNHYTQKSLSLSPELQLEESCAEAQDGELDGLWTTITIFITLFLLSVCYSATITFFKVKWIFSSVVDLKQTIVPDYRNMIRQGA
Chain of Human IgG4 (P01861 whole entry, looked up): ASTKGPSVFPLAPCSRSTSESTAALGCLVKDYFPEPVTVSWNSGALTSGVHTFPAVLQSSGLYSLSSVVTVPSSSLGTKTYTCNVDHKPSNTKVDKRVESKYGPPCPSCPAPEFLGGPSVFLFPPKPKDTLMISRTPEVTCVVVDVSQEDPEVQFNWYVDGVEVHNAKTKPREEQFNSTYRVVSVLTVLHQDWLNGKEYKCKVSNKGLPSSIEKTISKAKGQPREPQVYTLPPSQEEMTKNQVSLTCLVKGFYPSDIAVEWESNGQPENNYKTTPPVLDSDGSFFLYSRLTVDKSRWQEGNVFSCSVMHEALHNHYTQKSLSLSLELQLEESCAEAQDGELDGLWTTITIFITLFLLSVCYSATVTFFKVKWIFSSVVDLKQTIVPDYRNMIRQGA
Chain of Recombinant FcγRIIa (H131) with C-terminus Biotin (human) (P12318 34-217): as the sequence (P12318 34-217 H167R) above, with R134H counted along it
Chain of Recombinant FcγRIIb with C-terminus Biotin (human) (P31994 43-217): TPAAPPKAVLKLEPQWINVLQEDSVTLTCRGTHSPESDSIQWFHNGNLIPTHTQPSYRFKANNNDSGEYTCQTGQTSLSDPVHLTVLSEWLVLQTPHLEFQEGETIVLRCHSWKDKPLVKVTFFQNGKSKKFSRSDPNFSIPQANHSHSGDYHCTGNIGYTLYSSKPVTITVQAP
Chain of Recombinant FcγRIIIa (F158) with C-terminus Biotin (human) (P08637 17-208): as the sequence (P08637 17-208 F176V) above, with V160F counted along it
Chain of Recombinant FcγRI with C-terminus Biotin (human) (P12314 16-292): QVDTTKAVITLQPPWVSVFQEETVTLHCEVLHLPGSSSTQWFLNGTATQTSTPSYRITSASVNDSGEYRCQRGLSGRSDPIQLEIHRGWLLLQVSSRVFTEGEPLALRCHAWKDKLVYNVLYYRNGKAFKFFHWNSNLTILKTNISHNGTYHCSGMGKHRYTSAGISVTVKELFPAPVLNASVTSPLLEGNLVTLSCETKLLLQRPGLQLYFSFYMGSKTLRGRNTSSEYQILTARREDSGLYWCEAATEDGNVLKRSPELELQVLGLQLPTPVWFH

IC50 [1]: 55.8 nM
IC50 [2]: 178 nM
IC50 [3]: 12.5 nM
IC50 [4]: 1120 nM
IC50 [5]: 95.5 nM
Substance: Gammagard (from UniProt P01857)

IC50 [6]: 519 nM
IC50 [7]: 77.1 nM
IC50 [8]: 2040 nM
IC50 [9]: 29.4 nM
Substance: Human IgG2 (from UniProt P01859)

IC50 [10]: 573 nM
IC50 [11]: 1.07 nM
IC50 [12]: 128 nM
IC50 [13]: 102 nM
Substance: Human IgG4 (from UniProt P01861)

IC50 [14]: 18.4 nM
IC50 [15]: 11.3 nM
IC50 [16]: 42.6 nM
IC50 [17]: 107 nM
Substance: Human IgG (human polyclonal IgG) (antibody)
